# From article PMC10977726 (PLOS ONE, 2024)
# B1: His(6)-SUMO-TEV-Ig-CON-5 fusion protein (designed binder)
# chain: ENLYFQGECKGKGAKCSSISIHDAHCCTGSCRSGKC
# Molecular target: human IgG Fc (Biotin-SP-ChromPure Human IgG, Fc fragment) (human, biotin (Biotin-SP))
# Test: SPR
# Conditions: both partners purified
binder,measurement,value
B1,Kd,22.2 nM
